Our source for the K0.5 values is article PMC7438732, “The H^+-Translocating Inorganic Pyrophosphatase From Arabidopsis thaliana Is More Sensitive to Sodium Than Its Na^+-Translocating Counterpart From Methanosarcina mazei” (Frontiers in Plant Science, 2020).

Substrate in this series: O=P(O)(O)OP(=O)(O)O
Nature of the series: cells, lysate or membranes. The note with it: 0 mM added NaCl, 100 mM KCl, pH 7.2, 30 °C, Mg2PPi substrate without excess Mg2+, Na+ from Na4PPi present.

B1: AVP1 (Arabidopsis thaliana) (protein)
chain: MVAPALLPELWTEILVPICAVIGIAFSLFQWYVVSRVKLTSDLGASSSGGANNGKNGYGDYLIEEEEGVNDQSVVAKCAEIQTAISEGATSFLFTEYKYVGVFMIFFAAVIFVFLGSVEGFSTDNKPCTYDTTRTCKPALATAAFSTIAFVLGAVTSVLSGFLGMKIATYANARTTLEARKGVGKAFIVAFRSGAVMGFLLAASGLLVLYITINVFKIYYGDDWEGLFEAITGYGLGGSSMALFGRVGGGIYTKAADVGADLVGKIERNIPEDDPRNPAVIADNVGDNVGDIAGMGSDLFGSYAEASCAALVVASISSFGINHDFTAMCYPLLISSMGILVCLITTLFATDFFEIKLVKEIEPALKNQLIISTVIMTVGIAIVSWVGLPTSFTIFNFGTQKVVKNWQLFLCVCVGLWAGLIIGFVTEYYTSNAYSPVQDVADSCRTGAATNVIFGLALGYKSVIIPIFAIAISIFVSFSFAAMYGVAVAALGMLSTIATGLAIDAYGPISDNAGGIAEMAGMSHRIRERTDALDAAGNTTAAIGKGFAIGSAALVSLALFGAFVSRAGIHTVDVLTPKVIIGLLVGAMLPYWFSAMTMKSVGSAALKMVEEVRRQFNTIPGLMEGTAKPDYATCVKISTDASIKEMIPPGCLVMLTPLIVGFFFGVETLSGVLAGSLVSGVQIAISASNTGGAWDNAKKYIEAGVSEHAKSLGPKGSEPHKAAVIGDTIGDPLKDTSGPSLNILIKLMAVESLVFAPFFATHGGILFKYF
Regarding B1, the K0.5 is reported as 0.14 ± 0.08 mM.
